In the supplement of paper PMC9732359:
± gives the uncertainty stated by the source.

Assay: protein stability index of a GFP-peptide fusion (yeast GPS) (PSI 1-4); higher = more stable; sorted into four equal gates, so the index is relative within each strain
Settings: ubr1∆
How it was run: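 Tiled yeast protein peptides of 17 residues were each joined downstream of GFP, on plasmids that also express Cherry. The pooled library was maintained in yeast, and mid-log cultures in leucine-free medium were sorted into four equal gates on the GFP/Cherry ratio. Plasmids from every gate were amplified by PCR and sequenced on Illumina, with barcodes linking reads to strains. The protein stability index of a peptide is its gate-number-weighted read frequency summed over the gates.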

Sequence	protein stability index
QQQQQQQQQQQNNSTGS [SSN2]	2.85 ± 0.065
QQQRRQLTPQQQQLVNQ [GAL11]	3 ± 0.049
QQVVCIFSYGPHIQKML [POP6]	2.07 ± 0.054
QRKEIKDRISSCSSKEK [SMC4]	2.89 ± 0.09
QRKNIQSLELMIYDDAH [BRR2]	2.46 ± 0.049
QRLVTPQRLQRKRHQRA [RPS6A]	3.09 ± 0.035
QRQYKVQLLLHINSILL [SNF11]	1.96 ± 0.057
QRTAQDRVQQDSEDEDS [YML031W/NDC1]	2.91 ± 0.052
QSQQAQPSDVMFNDLNS [MED2]	3.11 ± 0.095
QSSFAGTWSAKEAVFKS [FAS2]	2.99 ± 0.058
QSSSSTRSHEYGRKSFR [REC8]	3.2 ± 0.13
QSTQTDLEKTERIVVSY [SMC2]	2.69 ± 0.044
QTARKSTGGKAPRKQLA [HHT1]	3.37 ± 0.086
QTDAIKSDEAKWKPVLS [RPN5]	3.2 ± 0.16
QTGTRRNSKLLNTKSIQ [MCD1]	3.2 ± 0.072
QTKSNGTAGGNTFGSSS [YJL041W/NSP1]	3.22 ± 0.053
QTSVTTNFNEITNTDET [SWP82]	3.14 ± 0.039
QTYINQELGFCELLKLT [SSN2]	2.67 ± 0.093
QVEYALESISHAGTAIG [PRE9]	2.52 ± 0.07
QVGDGLEILIVTKDGVR [PRE7]	2.76 ± 0.052
QVLNRYTYSSTLSHLRR [RPB2]	2.81 ± 0.03
QVLSQSADPSLLIDQFS [SWI1]	2.99 ± 0.057
QVQGQQQAQSFVGKKNT [SSN3]	2.57 ± 0.041
QWFEAHYGQTLGKKKNV [RPS8A]	2.647 ± 0.022
QYSLERNSPFWWTNSHH [PRP8]	2.69 ± 0.052
QYYRGLPLYEKNTLLER [SWP82]	3.13 ± 0.049

Sequence	protein stability index
RAGVTIPSIPNPIANHT [SNF5]	2.64 ± 0.031
RAKSCGVDAMSVDDLKK [RPL1A]	2.48 ± 0.05
RAKSSSHLFNEYSYVDS [RPN4]	2.63 ± 0.12
RALQENGIIMNGTLIGC [YMR153W/NUP53]	3.06 ± 0.066
RAPELLLGARHYTPAVD [SSN3]	1.56 ± 0.11
RAQHVKKLATRPKCGDC [RPL34A]	3.13 ± 0.084
RASDLRMTIRTRGRSAT [RRP43]	2.33 ± 0.11
RATNCRKRKCGHTNQLR [RPL40A]	3.17 ± 0.051
RDIFQEDEENSDVLLFQ [RGR1]	3.23 ± 0.035
RDKAGRLAEVNLKDLNN [RPO21]	2.79 ± 0.11
RDVSDDVFDTLATYCPR [GRR1]	3.22 ± 0.06
RDVYVFDKVEVQVRSVM [DIS3]	3.24 ± 0.071
REIQIDAVLKIFSFHQD [SRB8]	3.04 ± 0.04
REKLAEVYKAEKDAVSV [RPS24A]	3.33 ± 0.11
REKVRKLSQYVQEMALG [FAS2]	3.24 ± 0.067
REKYNMKGPAALWDVQF [ARP9]	3.45 ± 0.064
RENVFFQSQQRRKDTSM [RPB9]	2.75 ± 0.15
REQYETQVALNESEKDQ [UBP6]	2.91 ± 0.051
RERIKRGAHVEKTMVKK [PRP8]	2.78 ± 0.18
RESRIVSTEGNVPQTLA [RPL21A]	2.3 ± 0.095
RFPTKFVTQFRHLRRTG [RET1]	2.17 ± 0.068
RGFFHLNEALLQCPMLY [CSN12]	1.99 ± 0.056
RGGFGGRNRGRPNRRGP [RPS2]	3.4 ± 0.13
RGREEAASFKKLYKTPI [PRE10]	2.97 ± 0.13
RGTTAVLKESIVNICDI [PUP1]	1.79 ± 0.27
RHLEKEGIIKPISKHSK [RPS25A]	3.01 ± 0.076

Sequence	protein stability index
RIATEASKLAAYNKKST [HTB1]	2.94 ± 0.098
RIFAIAFTRKQANQVKR [RPS1A]	1.98 ± 0.02
RIKLATTSERVSNENKK [RRI1]	3.1 ± 0.11
RKANREEKLKANKEKKK [RPL24A]	2.31 ± 0.053
RKDTVSREVLRYEEFAD [RPC40]	3.3 ± 0.11
RKFALEKLYIFYKLNMP [SRP72]	1.29 ± 0.039
RKLFPNWIKPSDSEIPP [PRP8]	2.97 ± 0.053
RKPILLPDPKPLPLDLN [ITC1]	2.14 ± 0.04
RKRVYNIKFLSKLEGTI [ESC2]	3.21 ± 0.16
RKVVFPFQLDVADMLTP [UBP6]	2.05 ± 0.096
RLECVKCKTRAQLTLKR [RPL42A]	2.54 ± 0.056
RLENKLSEIESLDEILL [SRP68]	3 ± 0.085
RLFIGDQNNKKMVGLRG [SNF2]	2.69 ± 0.082
RLKQVFNRALDQSISKL [NNF1]	2.16 ± 0.036
RLLITGTPLQNNLHELW [ISW2]	2.83 ± 0.064
RLLNTNVDGNIKIVYAL [RPS18A]	3.27 ± 0.16
RLNKLNSNGIAMASLYL [SMD1]	2.67 ± 0.069
RLSNEMHALKNRSEQNG [RGR1]	2.9 ± 0.12
RLTGSLLAHKVADEEAN [RPC37]	1.06 ± 0.056
RNADELSSYQKKIIKCD [PRE5]	1.65 ± 0.049
RNEKIAVHVTVRGPKAE [RPL11A]	2.62 ± 0.053
RNIILEARFDVLITSYE [ISW2]	2.61 ± 0.074
RNMAEEFEYDDEPDEQG [CYT1]	3.09 ± 0.059
RNQEKKMEKKKSSSLSL [SNM1]	2.98 ± 0.1
RPKCGDCGSALQGISTL [RPL34A]	1.41 ± 0.052
RPKKVKLEGSENSEPPA [SNF2]	3.28 ± 0.063

Sequence	protein stability index
RPNGRKDHDLKIPLPEV [POP1]	3.15 ± 0.065
RQFLKANKTNLIESLNT [YML103C/NUP188]	2.99 ± 0.039
RQLTSMEFSNLYKEFFN [NUT1]	2.25 ± 0.067
RQMKDVNAPLPTPFKVD [RPN2]	2.86 ± 0.053
RQPSLHKMSMMAHRVKV [RPO21]	1.68 ± 0.082
RQQAYKTAQTLDENLNS [YJL041W/NSP1]	2.8 ± 0.05
RQQKLLLETKLRQQYEI [SWI1]	2.91 ± 0.11
RQREMAEEQTKLQSQSL [YLR018C/POM34]	3.1 ± 0.036
RQYVGQLAPSSVDPQSS [DIS3]	2.62 ± 0.055
RREELQQRIREIGLLPE [SMC3]	3.45 ± 0.066
RRFNSSIGRTAQGKEFG [RPL17A]	2.89 ± 0.07
RRGYQVYREVCAACHSL [CYT1]	1.59 ± 0.039
RRILAAAAAAAAAVSGN [SSN3]	1.59 ± 0.094
RRLPEDESYARAYRIIR [QCR7]	2.42 ± 0.043
RRLPMTMFTAEQSELLK [SNF2]	2.91 ± 0.055
RRRAFKRSQKKHKKKHL [RPB4]	3.46 ± 0.077
RRRSSTNKSKRPSITEA [MED1]	3.04 ± 0.077
RSAWNNNNDNDANRNAN [GRR1]	2.7 ± 0.039
RSDLQSKIQEIESIRSC [YIL149C/MLP2]	2.52 ± 0.089
RSIRGSFTSQGTISIQL [MTR3]	2.61 ± 0.041
RSKFLSTVAKFLARVIK [IRR1]	2.2 ± 0.047
RSLASFEQTAFSRHAQQ [SIR4]	2.77 ± 0.05
RSNFRVNLSQEALQYDP [SNU114]	3.1 ± 0.088
RSPRVVTNALDNIDEKV [NUT1]	3.03 ± 0.058
RSSSASNEFVPNTSDNN [SWI1]	2.9 ± 0.063
